This note sets out measurements from paper PMC7705443 (2020).

The target of this assay is SARS-CoV-2 RBD (residues 319-541), C-terminal his-tag (SARS-CoV-2, UniProt P0DTC2 319-541). Description: SPR.

B1: P17 antibody (full-length IgG1) (antibody, V domains shown)
VH: QQLVESGGGVVQPGRSLRLSCAASGFTFSSYAMHWVRQAPGKGLEWVAVISYDGSNKYYADSVKGRFTISRDNSKNTLYLQMNSLRAEDTAVYYCARHATLMNNKDIWGQGTLVTVSS
VL: not shown
In turn, B1 showed an off-rate (koff) of 0.000221 s⁻¹.
